According to article PMC9201380 (2022):

Molecular target: SARS-CoV-2 S receptor-binding domain (residues 330-531), Avi-tagged and biotinylated (SARS-CoV-2, UniProt P0DTC2 330-531)
Assay: BLI

B1: DL28 (monovalent nanobody) (VHH)
VHH: QVQLQESGGGLVQAGGSLRLSCAASGSDFSSSTMGWYRQAPGKQREFVAISSEGSTSYAGSVKGRFTISRDNAKNTVYLQMNSLEPEDTAVYYCNVVDRWYDYWGQGTQVTVSA
koff: 0.000743 s⁻¹
